How the values were obtained:
[1] = system: T1, CC(=O)N[C@H]1[C@H](Oc2ccc3c(C)cc(=O)oc3c2)O[C@H](CO)[C@@H](O)[C@@H]1O; test: fluorescence, 4MU release, Michaelis-Menten; format: biochemical, Bacteroides thetaiotaomicron
T1 construct: recombinant purified enzyme

[2] = system: T1, CC(=O)N[C@H]1[C@H](Oc2ccc3c(C)cc(=O)oc3c2)O[C@H](CO)[C@@H](O)[C@@H]1O; test: fluorescence, 4MU release, Michaelis-Menten; format: biochemical, Bacteroides thetaiotaomicron; conditions: unmodified BtGH84_TM (no tethered fragment)
Source text: fluorescence, 4MU release, Michaelis-Menten on BtGH84

“BtGH84 (Bacteroides thetaiotaomicron VPI-5482; C441S/C675S/Y158F/Y571C)” was tested, and the Km ([1]; unmodified BtGH84_QM) was 11.215 ± 3.274 mM and the kcat ([1]; unmodified BtGH84_QM) was 77 ± 15 s⁻¹.

In the case of “BtGH84 (Bacteroides thetaiotaomicron VPI-5482; C441S/C675S/Y571C)”, the Km [2] is reported as 4.68 ± 0.22 mM, the kcat [2] is reported as 127 ± 6 s⁻¹ and the kcat/Km [2] is reported as 27200 ± 2460 M⁻¹ s⁻¹.

In the case of “BtGH84 (Bacteroides thetaiotaomicron VPI-5482; Y158F)”, the Km ([1]; unmodified BtGH84_Y137F) is reported as 6.61 ± 1.282 mM and the kcat ([1]; unmodified BtGH84_Y137F) is reported as 87 ± 4 s⁻¹.

— PMC5674511, “Increase of enzyme activity through specific covalent modification with fragments” (Chemical Science, 2017)
